The data set addresses Cas9;AcrIIA5 (Streptococcus pyogenes;virulent phage …, UniProt Q99ZW2;A0A220GHA5 1-1368;1-140, |). Put plainly: EMSA; 5 mM Mg2+; AcrIIA5 0.4-4 uM supershifts Cas9-sgRNA 0.2 uM; EMSA: 20 mM Tris-HCl pH 7.5, 150 mM KCl, 5 mM MgCl2, 1 mM DTT, 5% glycerol, 25 C, 40 min; sgRNA 200 nM, Cas9 400 nM; 6% PAGE, SYBR Gold. Conditions: protein: recombinant;recombinant; tags: N-terminal His6 (pET28); copies: 1;1; single strand, guide plus sgRNA scaffold hairpins. A general note: In EMSA bound probe runs differently from free probe, usually more slowly.

B1: Cas9 sgRNA (structured_RNA)
RNA: GGAAAUUAGGUGCGCUUGGCGUUUUAGAGCUAGAAAUAGCAAGUUAAAAUAAGGCUAGUCCGUUAUCAACUUGAAAAAGUGGCACCGAGUCGGUGCUU
B1: the binding result is reported as “binds”.

These data come from publication PMC7367191, “Intrinsic disorder is essential for Cas9 inhibition of anti-CRISPR AcrIIA5”.
